The test system of data set [1] is POU5F1 TALEN 101138 (Xanthomonas sp. (engineered)). Put plainly: cell_activity. Particulars: paired with 101229.
Data set [2] relates to POU5F1 TALEN 101229 (half repeat for G) (Xanthomonas sp. (engineered)). In words: cell_activity. As to conditions: paired with 101138.
Data set [3] concerns TALE test backbone, repeat 5 RVD DH (synthetic (Xanthomonas TALE)). As to conditions: ELISA. For orientation: An ELISA detects its analyte on a solid surface through an enzyme-linked reagent.
For data set [4], the system named is TALE test backbone, repeat 5 RVD AD (synthetic (Xanthomonas TALE)). As to conditions: ELISA.
Data set [5] concerns TALE test backbone, repeat 5 RVD AA (synthetic (Xanthomonas TALE)). Particulars: ELISA.
The test system of data set [6] is TALE test backbone, repeat 5 RVD GG (synthetic (Xanthomonas TALE)). Particulars: ELISA.
For data set [7], the system named is TALE test backbone, repeat 5 RVD NI (Xanthomonas sp. (engineered)). As to conditions: RVD NI.
For data set [8], the system named is TALE test backbone, repeat 5 RVD QG (synthetic (Xanthomonas TALE)). As to conditions: ELISA.
In data set [9] the test system is TALE test backbone, repeat 5 RVD HD, standard framework (SEQ 333) (Xanthomonas sp. (engineered)). As to conditions: RVD HD.
For data set [10], the system named is TALE test backbone, repeat 5 RVD SN (synthetic (Xanthomonas TALE)). Particulars: ELISA.
Data set [11] deals with TALE test backbone, repeat 5 RVD DK (synthetic (Xanthomonas TALE)). As to conditions: ELISA.
Data set [12] has as its system TALE test backbone, repeat 5 RVD IG (synthetic (Xanthomonas TALE)). As to conditions: ELISA.
Data set [13] deals with TALE test backbone, repeat 5 RVD IA (Xanthomonas sp. (engineered)). As to conditions: RVD IA.
Data set [14] deals with TALE test backbone, repeat 5 RVD QA (synthetic (Xanthomonas TALE)). As to conditions: ELISA.
The test system of data set [15] is TALE test backbone, repeat 5 RVD KI (synthetic (Xanthomonas TALE)). As to conditions: ELISA.
For data set [16], the system named is TALE test backbone, repeat 5 RVD NG (Xanthomonas sp. (engineered)). Particulars: RVD NG.
Data set [17] relates to TALE test backbone, repeat 5 RVD IP (synthetic (Xanthomonas TALE)). Particulars: ELISA.
Data set [18] relates to TALE test backbone, repeat 5 RVD RI (synthetic (Xanthomonas TALE)). As to conditions: ELISA.
For data set [19], the system named is TALE test backbone, repeat 5 RVD LA (synthetic (Xanthomonas TALE)). As to conditions: ELISA.
In data set [20] the test system is TALE test backbone, repeat 5 RVD RG (synthetic (Xanthomonas TALE)). Particulars: ELISA.
Data set [21] relates to TALE test backbone, repeat 5 RVD SG (synthetic (Xanthomonas TALE)). As to conditions: ELISA.
In data set [22] the test system is TALE test backbone, repeat 5 RVD HG (synthetic (Xanthomonas TALE)). As to conditions: ELISA.
Data set [23] relates to TALE test backbone, repeat 5 RVD AE (synthetic (Xanthomonas TALE)). As to conditions: ELISA.
In data set [24] the test system is TALE test backbone, repeat 5 RVD HN (synthetic (Xanthomonas TALE)). As to conditions: ELISA.
The test system of data set [25] is TALE test backbone, repeat 5 RVD KT (synthetic (Xanthomonas TALE)). As to conditions: ELISA.
Data set [26] concerns TALE test backbone, repeat 5 RVD TA (synthetic (Xanthomonas TALE)). Particulars: ELISA.
For data set [27], the system named is TALE test backbone, repeat 5 RVD KD (synthetic (Xanthomonas TALE)). As to conditions: ELISA.
Data set [28] relates to TALE test backbone, repeat 5 RVD NS (synthetic (Xanthomonas TALE)). Particulars: ELISA.
The test system of data set [29] is TALE test backbone, repeat 5 RVD TP (Xanthomonas sp. (engineered)). Particulars: RVD TP.
In data set [30] the test system is TALE test backbone, repeat 5 RVD VG (Xanthomonas sp. (engineered)). Particulars: RVD VG.
Data set [31] has as its system TALE test backbone, repeat 5 RVD AT (synthetic (Xanthomonas TALE)). As to conditions: ELISA.
Data set [32] deals with TALE test backbone, repeat 5 RVD HA (synthetic (Xanthomonas TALE)). Particulars: ELISA.
In data set [33] the test system is TALE test backbone, repeat 5 RVD HI (synthetic (Xanthomonas TALE)). As to conditions: ELISA.
Data set [34] relates to TALE test backbone, repeat 5 RVD KS (synthetic (Xanthomonas TALE)). Particulars: ELISA.
Data set [35] relates to TALE test backbone, repeat 5 RVD AN (synthetic (Xanthomonas TALE)). As to conditions: ELISA.
The subject of data set [36] is TALE test backbone, repeat 5 RVD ND (synthetic (Xanthomonas TALE)). Particulars: ELISA.
Data set [37] concerns TALE test backbone, repeat 5 RVD YG (synthetic (Xanthomonas TALE)). As to conditions: ELISA.
Data set [38] concerns TALE test backbone, repeat 5 RVD RA (synthetic (Xanthomonas TALE)). As to conditions: ELISA.
Data set [39] has as its system TALE test backbone, repeat 5 RVD NA (synthetic (Xanthomonas TALE)). Particulars: ELISA.
For data set [40], the system named is TALE test backbone, repeat 5 RVD KG (synthetic (Xanthomonas TALE)). Particulars: ELISA.
The subject of data set [41] is TALE test backbone, repeat 5 RVD NK (Xanthomonas sp. (engineered)). Particulars: RVD NK; other bases 0.00.
Data set [42] concerns TALE test backbone, repeat 5 RVD SN (Xanthomonas sp. (engineered)). As to conditions: RVD SN.
Data set [43] relates to TALE test backbone, repeat 5 RVD IA (synthetic (Xanthomonas TALE)). As to conditions: ELISA.
The subject of data set [44] is TALE test backbone, repeat 5 RVD VG (synthetic (Xanthomonas TALE)). Particulars: ELISA.
In data set [45] the test system is TALE test backbone, repeat 5 RVD KN (Xanthomonas sp. (engineered)). As to conditions: RVD KN.
Data set [46] deals with TALE test backbone, repeat 5 RVD TP (synthetic (Xanthomonas TALE)). As to conditions: ELISA.
In data set [47] the test system is TALE test backbone, repeat 5 RVD DH (Xanthomonas sp. (engineered)). Particulars: RVD DH.
Data set [48] concerns TALE test backbone, repeat 5 RVD NN (Xanthomonas sp. (engineered)). Particulars: RVD NN.
In data set [49] the test system is TALE test backbone, repeat 5 RVD AK (Xanthomonas sp. (engineered)). Particulars: RVD AK; other bases 0.00-0.01.
For data set [50], the system named is POU5F1 TALEN 101225 (NN half repeat) (Xanthomonas sp. (engineered)). In words: cell_activity. Particulars: paired with 101125; NN half repeat.
The subject of data set [51] is POU5F1 TALEN 101125 (Xanthomonas sp. (engineered)). Put plainly: cell_activity. As to conditions: paired with 101225.

Regarding “CTGGGCTCTCCCAT (double strand) [101138 site]”, the activity in [1] stood at 25.6 % NHEJ.
In data set [2], “CCCCCATTCCTAGAAGG (double strand) [101229 site]” registered an activity of 25.6 % NHEJ.
Regarding “TTGACTATCCT (double strand) [CTA target]”, the binding signal (normalized ELISA) in data set [3] stood at 0.03; in data set [4], 0.01; in data set [5], 0.61; in data set [6] it was 1.52; in [7], 0.02; in data set [8] it was 1.09. Further, the binding signal (normalized ELISA) in data set [9] worked out at 0.09; in [10], 0.02; in data set [11] it was 0; in data set [12], 0.68; in [13] it was 1.2; in [14], 1.24. For the same sequence, the binding signal (normalized ELISA) turned out to be 0.04 in data set [15]; 1.3 in data set [16]; 0.84 in [17]; 0.02 in [18]; 0.51 in [19]; 0.87 in [20]. Besides, the binding signal (normalized ELISA) amounted to 1.23 in data set [21]; 1.49 in [22]; 0 in data set [23]; 0.01 in [24]; 0.67 in data set [25]; 0.76 in data set [26]. For the same sequence, the binding signal (normalized ELISA) came to 0.05 in data set [27]; 0.54 in data set [28]; 1.2 in data set [29]; 0.56 in data set [30]; 0.56 in [31]; 1.54 in [32]. Besides, the binding signal (normalized ELISA) in [33] worked out at 0.04; in data set [34], 0.81; in data set [35], 0.01; in data set [36], 0.02; in data set [37], 0.79; in data set [38], 1.64. Further, the binding signal (normalized ELISA) is 1.72 in [39] and 1.29 in [40].
For “TTGACGATCCT (double strand) [CGA target]”, the binding signal (normalized ELISA) stood at 0.15 in data set [41]; 0 in data set [4]; 0.06 in data set [5]; 0.25 in data set [6]; 0.02 in data set [7]; 0.05 in data set [8]. In addition, the binding signal (normalized ELISA) in data set [9] was determined as 0; in [42], 0.92; in data set [11] it was 0.15; in data set [43], 0.02; in data set [12], 0.01; in [14] it was 0.03. In addition, the binding signal (normalized ELISA) in data set [15] amounted to 0.02; in data set [44] it was 0.01; in [17] it was 0; in data set [18], 0.02; in data set [19], 0; in data set [20], 0.12. Further, the binding signal (normalized ELISA) in [45] is 1; in data set [21], 0.2; in data set [22] it was 0.11; in data set [23], 0; in data set [24], 0.86; in [46] it was 0.01. Further, the binding signal (normalized ELISA) in data set [25] amounted to 0.83; in data set [26], 0.01; in data set [27], 0; in [28], 0.71; in data set [31], 0.76; in [32], 0.24. The binding signal (normalized ELISA) in data set [33] is 0.04; in data set [34], 0.74; in data set [35], 0.87; in [36], 0; in [37] it was 0.01; in [38], 0.53. Further, the binding signal (normalized ELISA) stood at 0.36 in data set [47]; 0.81 in [48]; 0.21 in [49]; 0.41 in data set [39]; 0.2 in [40].
“CACCTGCAGCTGCCCAG (double strand) [101225 site]”: the activity in [50] worked out at 5 % NHEJ.
Sequence “GACCCTGCCTGCTCCT (double strand) [101125 site]” returned an activity in data set [51] of 5 % NHEJ.

The values are drawn from patent publication US20110301073.
